# Assay: yeast display, Sf9 membrane polyspecificity reagent, FACS + sequencing; frameworks hold sequencing errors
# Method in brief: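 A synthetic nanobody library was expressed on Saccharomyces cerevisiae BJ5465 by galactose induction for 36–48 hours. The library was stained for 1 hour at 4 °C with 10% biotinylated, detergent-solubilized Sf9 membrane reagent and enriched with streptavidin microbeads before FACS. Low and high (top ~1%) gates were set on anti-HA fluorescence for expression and streptavidin fluorescence for reagent binding, and each polyreactivity label reflects the gate of origin.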
row,Sequence,polyreactivity (PSR sort gate)
1,QVQLVESGGGLVQAGGSLRLSCAASGSIFPDNAMRWYRQAPGKERELVAAITRGGSTYYADSVKGRFTISRDNAKNTVYLQMNSLKPEDTAVYYCAARRRYLWSYDYWGQGTQVTVSS,high polyreactivity
2,QVQLVESGGGLVQAGGSLRLSCAASGRTFTWNVMGWYIQAPGKERELVAAISSSGGDTYYADSVKGRFTISRDNAKNTVYLHMNSLKPEDTAVYYCAAGQVYSGYEYWGQGTQVTVSS,low polyreactivity
3,QVQLVESGGGLVQAGGSLRLSCAASGRILRVYAMGWYRQAPGKERELVAAISSGGSTNYADSVKGRFTISRDNAKNTVYLQMNSLKPEDTAVYDCAATVRGVGYRYYYWGQGTQVTVSS,high polyreactivity
4,QVQLVDSGGGLVQAGASLRLSCAASGIIFWSYTMGWYRQAPGKERELVAAINWSGTRTYYADSVKGRFTISRDNAKNTVYLQMNSLKTEDTAVYYCNADSRYRSFDYWGQGTQVTVSS,high polyreactivity
5,QVQLVESGGGLVQAGGSLRLSCAASGSIFENNAMGWYRQAPGKERELVAAISSDDTTNYADSVKGRFTISRDNAKNTVYLQMNSLKPEDTAVYYCATDYYVYGYPYDYGYWGQGTQVTVSS,low polyreactivity
6,QVQLVESGGGLVQAGGSLRLSCAASGRTFGGNAMGWDRQAPGKERELLAAITGRGGSTYYADSLKGRFTISRDNAKNTVYLQMNSLKPEDTAVYYCNADGSAYIEDGYDYWGQGTQVTVSS,low polyreactivity
7,QVQLVESGGGLVQAGGSLRLSCAASGYIFDRYAMGWYRQAPGKERELVAAISGRGGSTYYADSVKGRFTISRDNAKNTVYLQMNSLKPEDTAVYYCARDVYVRIGQRARYDSWGQGTQVTVSS,high polyreactivity
8,QVQLVESGGGLVQAGGSLRLSCAASGRIFAKNTMGWYRQAPGKERELVAAITWSSGNTDYADSVKGRFTISRDNAKNTVYLQMNSLKPEDTAVYYCNARFYYRPLRFSYDYWGQGTQVTVSS,high polyreactivity
9,QVQHVESGGGLVQAGGSLRLSCAASGRTFKYYAMGWYRQAPGKERELVAAISSRGGSTYYADSVKGRFTISRDNAKNTVYLQMNSLKPEDTAVYYCAKGTYLSTSTVANDYWGQGTQVTVSS,high polyreactivity
10,QVHLVESGGGLVQAGGSLRLSCAASGTTFGVYALGWYRQAPGKERELVAVITSRGGSTYYADSVKGRFTISRDNAKNTVYLQMNSLKPEDSAVYYCNTSTSRVPGNGEYWGQGTQVTVSS,high polyreactivity
11,QVQLVESGGGLVQAGGSLRLSCAASGRIFDHYAMVWYRQAPGKERELVAAITRSGGITYYADSVKGRFTISRDNAKYTVYLQMNSLKPEDTAVYYCAALSYRYTDNFDYWGQGTQVTVSS,low polyreactivity
12,QVQLVESGGGLVQAGGSLRLICAASGSTFGYYAMGWYRKAPGKERELVAVITYSGGSTYYADSVKGRFTISRDNAKNTVNLQMNSLKPEDTSVYYCSAVIGVWYYYTYDYWGQGTQVTVSS,low polyreactivity
13,QVQLVESGGGLVQAGGSLRLSCAASGFIFEYYAMGWYRQAPGKERELVAAISSGGGRTYYADSVKGRFTISRDNAKNTVYLQMNSLKPEDTAVYYCAAGFYVDYQLYEYWGQGTQVTVSS,high polyreactivity
14,LGQVVESGGGLVQAGGSLRLSCAASGRIFHRNTMGWYRQAPGKEWELVAAISGSTGRTYYADSVKGRFPISRDNAKTTVYLQMNSLKPEDTAVYYCAKVYRRSGSVARYDYGGQGTQVTVSS,high polyreactivity
15,QVQLVESGGGLVQAGGSLRLSCAASGRTLHYYAMGWYRQAPGKERELVARINWSGGSTYYADSVKGRFTISRDNAKNTVYLQMNSLKPEDTAVYYCARTSYYWSSFDYWGQGTQVTVSS,high polyreactivity
16,QVQLVESGGGLVQAGGSLRFSCAASGSTFGFNAMGWYRQAPGKERELLPLFWSGGSTYYADSVNGRFTISRDNAKNSVYLQMNSLKPDDTAVYYCNKDSTPITRYDYWGQGTQVTVSS,low polyreactivity
17,QVQLVESGGGLVQAGGSLRLSCAASGIIFYRNARGWYRQAPGKERELVAAISSRGGNTYYADSVKGRFTISRDNAKNTVYLQMNSLQPEDTAVYYCARDSYSLSRTYDSWGQGTQVTLSS,high polyreactivity
18,QVQLVESGGGLVQAGGSLRLSCAASGSTFYIYAMGWYRQAPGQERELVATISWSGGSTYYADSVKGRFTISRDNAKNTVYLQMNSLKPEDTAVYYCAVRPGFGRSLWYGYWGQGTQVTVSS,high polyreactivity
19,QVQLVESGGGLVQAGGSLRLSCAASGITPDYAMGWYRQAPGTERELVAAITWSGGRTYYADSVKGRFTISRDNAKNTVYLQMNSLKPEDTAVYYCAAEHYLGYDYWGQGTQVTVSS,low polyreactivity
20,QVQLVESGGGLVQAGGSLRLSCAASGSTFYAYAMGWYRQAPGKERELVAAISSDGTNYADSVKGRFTISRDNAKNTVYLQMNSLKPEDTAVFYCAADLLLYSSQDNDYWGQGTQVTVSS,low polyreactivity
21,QVQLVESGGGLVQAGGSLRLSCAASGRTFKLNAMGWYRQAPGKERELVAAISRNGGSTYYADSVKGRFTISRDNAKNTVYLQMTSLKPEDTAVYYCAAVRHGVSLAGYYWGQGTQVTVSS,high polyreactivity
22,QVHLEESWGGLVQAGGSLSISCAASGSIFRPNAMGWYRPAPGKERELVAAINKIGGRTYYADSVKGRFTISRDNAKNTVYLQMNSLKPEDTAVYYCNAGGGYHYWGQGTQVTVSS,high polyreactivity

row,Sequence,polyreactivity (PSR sort gate)
1,QVQLVESGGGLVQAGGSLRLSCAASGSTFTLYAMGWYRQAPGKERELVAAITWRGGSTFYADSVKGRFTISRDNAKNTVYLQMNSLKPEDTAVYYCAADYYSYVVGRIDYWGQGTQVTVSS,high polyreactivity
2,QVQLVESGGGLVQAGGSLRLSCAASGITFWFYAMGWYRQAPGKERELVADITSGGSTYYADSVKGLFTISRDNAKNTVYLQMNSLKPEDTAVYYCAADSWDSLAGLWDWNGPYYYWGQGTQVTVSS,low polyreactivity
3,QVQLVESGGGLVQAGGSLRLSFAASGSIFYVYAMGWYRQAPGKERELVAAITWSGGSTYYADSVKGRFTLSRDNAKNTVYLQMNSLKPEDTAVYYCAADEGYDYPYYYWGQGTQVTVSS,high polyreactivity
4,QVQLVESGGGLVKAGGSLRLSCAASGLIFRRNAMGWYRQAPGKERELVATINFRDTTRYADSVKGRFTISRDNAKNTVYFQMNSLKPEDTAVYYCATEWPERDWWVHKMDYWGQGTQVTVSS,low polyreactivity
5,QVQLEESGGGLVQAGGSLRLSCDASGRIFGGYAMGWYRQAPGKERELVAAISASGGRTYYADSVKGRFTISRDNAKNTVYLQMNSLKPEDTAVYYCAASFRRTSLRWHGEYWGQGTQVTVSS,high polyreactivity
6,QVQLVESGGGLVQAGGSLRLSCAASGSSIYSYAMGWYRQEPGKERELVAAITTSGGSTYYADSVKGRFTISRDNAKNTDYLQMNSLKPEDTAVYYCNAYFIYEGGWYYKAQYDYWGQGTQVTVSS,low polyreactivity
7,QVQLVESGGGLVQAGGSLRLSCAASGSTFRYAMGWYRQAPGKERELVATISSGGSTNYADSVKGRFTISRDNAKNTVYLQMNSLKPEDTAVYYCAADPYGGDNDKGDYWGQGTQVTVSS,low polyreactivity
8,QVQLVESGGGLVQAGGSLRLSCAASGGTFTVNAMGLYRQAPGKERELVAAITWDGGTTYYADSVKGRFTISRDNAKNTVYLQMNSLKPEDSAVYYCAAEVDYSAFDYWGQGTQVTVSS,low polyreactivity
9,QVQLVESGGGLVQAGGSLRLSCAASGLSFGDYTMGWYRQAPGKERELVAAITGSGASTYYADSVKGRFTISRDNAKNTVYLQMTRLKPEDTAGYYCAAERTPSYRAYDYWGQATQVTVSS,low polyreactivity
10,QVQLVESGGGLVQAGGSLRLSCAASGFTFKFYAMGWYRQAPGKERELVAAISGSGDSTYADSVKGRFTISRDNAKNTVYLQINSLKPEDTAVYYFNGRYAGVPWWGYYSRFDYWGQVTQVTVSS,low polyreactivity
11,QVQLVESGGGLVQAGGSLRLSCAASGLIFKYYAMGWYRQAPGKERELVASISRGGVTTYYADSVKGRFTISRDNAKNTVYLQMNSLKPEDTAVYYCAARFRYAPFYHWGQGTQVTVSS,high polyreactivity
12,QVQLVESGGGLVQAGGSLRLSCAASGYTFASYTMGLYRQAPGKERELVATISRGGGRTYYADSVKGRFTISRDNAKNTVYLQMNSLKPEDTAVYYCATRLYPHQYYYWGQGTQVTVSS,high polyreactivity
13,QVQLVESGGGLVHAGGSLRLSCAACGRTFGRYPMGSYRQAPGKERELVAAITVGGGSTYYADSVKGRFTISRDYAKNTVYLQMNSLKPEDTAVYYCNALHTYTYRYDYYYWGQGTQVTVSS,high polyreactivity
14,QGHLVESLGGLVQAGGSLRLSCAASGRIIGVYAMGWSRQAPGKERELVAAISEGGGSTNYADSVKGRFTISRDNSKNTVYLQMNSLKPEDTAVYYCNADADEYRDYHDYDYWGQGTQVTVSS,low polyreactivity
15,QDQLVESVGGLVQAGGSLRLSCAASGSTISLYAMGWYRQAPGKERELVAAISQSGSRTYFADSVKGRFTISRDNAKNTVYLQMISLKQEDTAVYYCAAYSPQTYLRWTYGYWGQGTQVTVSS,high polyreactivity
16,QVQLVESGGGLVQAGGSLRLSCAASGRIFRSYAMGWYRQAPGKERELVAAISQRGGRTYYADSVKGRFTISRDNAKNTVYLQMNSLKPEDTAVYYCAKSNPKLGYYYLQGDLYDYWGQGTQVTVSS,low polyreactivity
17,QVQLQESGGGLVQAGGSLRLSCAASGSIFVSVTMGWYRQAPGKERELGASIGRGSTTNHADSVKGRFTISRDNAKNIVYLLMNSLKPEDTAVYYCAALESYGKYHGYWGQGTLVTVSS,low polyreactivity
18,QVQLVESGGGLVQAGGSLRLICAASGNTFSVYTMGWYRQAPGKERELVAAISFRSGSTYYADSVKGRFTISRDNAKNTVYLLMNSLKPEDTAVYYCAAYVRQLQVVRGVSNYDSWGQGTQVTVSS,high polyreactivity
19,QVQLVESGGGLVQEGGSLRLSCAASGFTFAQYALGWYRQAPGNERELVAAISRRGGRTYYADSVTGRFTISRDIAKNTVYLQMTSLKPEDSAVSYCAADGGYQDDYDYWGQGTQVTVSS,high polyreactivity
20,QVQHEESGGGLVQAGGSLRLSCAASGLTFYPYAMGWYRQATGKESELVAGISASGGGTSYADSVKGRFTISRDNAKNTVYLQMNSLKPEDTAVYYCAATPTFFVWQGYNYWGQGTQVTVSS,low polyreactivity
21,QVQLVESGGGLVQAGGSLRLSCAASGSIFQIYAMGWYRQAPGKESELVATINRGDNTYYADSVKGRFTISRDNAKNTVYLQMHSLTPEDSAVYYCNVDRQVITGRYIGDYWGQGTLVTVSS,low polyreactivity

# — the nanobody polyreactivity screen of Harvey et al. (2022)
